{"source": "patent US20250122303A1", "about": "“TREATMENT AND PREVENTION OF CANCER USING HER3 ANTIGEN-BINDING MOLECULES” (Hummingbird Bioscience Pte. Ltd., priority 2021, published 2025)", "key": {"His-tagged human HER3": {"target": "His-tagged human HER3 (Homo sapiens, UniProt P21860)", "experiment": "BLI competition between anti-HER3 antibodies for binding to HER3", "procedure": "Bio-Layer Interferometry (BLI) experiments were performed using the Octet QK384 system (ForteBio). anti-Penta-HIS (HIS1K) coated biosensor tips (ForteBio, USA) were used to capture His-tagged human HER3 (75 nM; 300 s). Binding by saturating antibody ([…]; 600 s) was detected, followed by a dissociation step (120s), followed by detection of binding with competing antibody (300 nM; 300 s), followed by a dissociation step (120s).\nBLI experiments were performed as described in Example 3.5 with one alteration: 400 nM of competing antibodies were used. The variable regions of M-05-74 and M-08-11 antibodies were cloned in the PDZ vector having human IgG1 and IgKappa Fc backbone."}, "[1]": {"experiment": "Toxicity in BALB/c mice (haematology, clinical chemistry, observations)", "format": "in vivo, mouse", "conditions": "single IP dose 1000 μg", "procedure": "Hemotoxicity was investigated in an experiment in which 6-8 week old female BALB/c mice (20-25 g) were injected intraperitoneally with a single dose of 1000 μg anti-HER3 10D1 antibody or an equal volume of PBS. Blood samples were obtained at 96 hours post injection and analysed for numbers of different types of white blood cells by flow cytometry and electrolyte indices for NA^+, K^+, and Cl^−.\nMice were also analysed for correlates hepatotoxicity, nephrotoxicity and pancreatic toxicity at 96 hours post injection. […] Left bars represent vehicle, right bars represent 10D1 treatment, end points of the Charles River reference range indicated with dotted lines.\n3 mice were injected with each treatment, 4 mice were injected with PBS control. Blood samples were obtained at 96 hours post injection and analysed for RBC indices (total RBC count, haematocrit, haemoglobin, platelet count, mean corpuscular volume, mean corpuscular haemoglobin, mean corpuscular haemoglobin concentration) and WBC indices (total WBC count, lymphocyte count, neutrophil count, monocyte count). Analysis was performed using a HM5 Hematology Analyser.\nA further study was performed in the BALB/c mice to assess the toxicological effects of repeat doses of 500 μg (˜25 mg/kg) 10D1 F.FcA or 10D1F.FcB. Antibody was administered once a week for four weeks. Blood was obtained 28 days after the first administration."}, "[2]": {"test_system": "N87 cell-line derived mouse gastric carcinoma model", "experiment": "N87 cell-line derived xenograft model", "format": "in vivo", "conditions": "N87, IP biweekly 500 μg, 10 doses", "procedure": "Tumor volumes were measured 3 times a week using a digital caliper and calculated using the formula [L ×W2/2]. Study End point was considered to have been reaches once the tumors of the control arm measured >1.5 cm in length.\nThe model was established by subcutaneous injection of 1×10^6 N87 cells into the right flank (n=6 mice per treatment group).\n10D1 was administered IP, biweekly at 500 μg per dose (for a total of 10 doses); a control treatment group received an equal volume of PBS.\nTumour cells are inserted with matrigel subcutaneously into the right flanks of female NCr nude mice.\nMurine tumour efficacy studies were performed using cell-line derived xenograft (CDX) models in mice. Female NCr nude mice (5-8 weeks old, 21-29 g) were subcutaneously implanted with N87, A549, FaDu, OvCAR8 cells. Treatment was initiated when tumours reached approximately 100 to 200 mm^3. Vehicle (PBS) or therapeutic antibodies (25 mg/kg) were administered intraperitoneally (IP) at indicated time points (weekly FaDu and OvCAR8, twice weekly N87 and A549). Tumours were measured twice per week using a calliper and tumour volume (mm^3) was calculated. Each data point represents the mean tumour volume ±SEM (n=8 mice)."}}, "note": "“Also recorded” adds a separate entry of the source."}
{"molecule": "10D1: anti-HER3 antibody clone, VH SEQ ID NO:24, VL SEQ ID NO:74; [1] of Example 2.2 (antibody, V domains shown) VH: DVQLQESGPDLVKPSQSLSLTCTVTGYSITSGYSWHWIRQFPGNKLEWMGSIHYSGGTNYNPSLKSRISITRDTSKNQFFLQLNSVTTEDTATYFCARMTTAPRYPFDYWGQGTTLTVSS VL: DIVMTQSQKFMSTSVGDRVSVTCKASQIVGSNVAWYQQKPGQSPKPLIYSASYRYSGVPDRFTASGSGTDFTLTITNVQSEDLAEYFCQQYSSHPLTFGAGTKLELK", "values": [{"measurement": "competition with MM-121 and/or LJM-716 for binding to HER3", "setting": "His-tagged human HER3", "value": "not to compete; also recorded: distinct and topologically distant epitope"}, {"measurement": "clinical signs, gross necroscopy or weight", "setting": "[1]", "value": "No differences"}, {"measurement": "kidney, liver or pancreatic indices", "setting": "[1]; 96 hours", "value": "no effect on the kidney, liver or pancreatic indices"}, {"measurement": "numbers of different blood cell types and electrolyte indices", "setting": "[1]; 96 hours", "value": "within the Charles River reference range"}, {"measurement": "inhibition of tumor growth", "setting": "[2]", "value": "~76", "unit": "%"}]}
